Publication PMC3477478

Substrate: CC(=O)O
Experiment: purified protein
Details: 10 mM ATP, 0.47 mM HSCoA, 10 mM MgCl2, 120 mM hydroxylamine, 10 mM reduced glutathione, Tris/HCl pH 7.5, 37 °C, apparent Km

B1: K. stuttgartiensis ACS (kustc1128), AMP-forming acetyl-CoA synthetase (Candidatus Kuenenia stuttgartensis) (protein)
chain: MNKTEIINKHPEAFNLICYEDQHKNFSWETVKKELGVGGNKVNIAYEAIDKHATTWRKNKVALYWEGSDGTHLKYTFQELKILSDKCANMLQSLGVGKGDRVFLFLPRLPELFINMIAIAKLGAISGPMFSAFGPDAVRDRLQNSEAKVLITTPELKERVDAVLWELPKLERIVLVSVKEDYELEEGNVCYKTLMKDAPERFEMEWMDMEDPLYLLYTSGTTGKPKGITHVHNDMISYYITTKWSLDLRDDDIYWCTADPGWVTGTVYGMWGPWLNGVSMYIYDGRFDVNKWYEAIQSYKITVWYTAPTALRMLMKSGDYLVAQYDLESLRYICSVGEPLNPEVIKWGMNVYNLPIHDTWWQTETGSIMIANYPCIPIKPGSMGKPFPGIKAAIIDSEGNELPDGHHGILALKPGWPSMLRKVWGDEGRFNEYFNITGWYTTGDTAYKDEEGYFWFVGRADDVINTSGHRVGPFEVESALLEHRAVAEAGVIGKPDPERGEIIKAFIALKEGFKPSSELGEEIKKFIKHHLAAHAYPREIEFCENLPKTRSGKIMRRLLKAKDLGLPTGDISTLED
B1 gave a Km of 200 µM.
